Measurements from PMC8010463, “Discovery of a novel lactate dehydrogenase tetramerization domain using epitope mapping and peptides” (The Journal of Biological Chemistry, 2021).

Tests used:
LDH-H oligomeric state = test: Mass photometry of LDH-H, LDH-Htr and variants; assay type: physicochemical, human; settings: for Oligomeric state in solution: in words; for Molecular weight (main oligomeric state): mean ± SD, one measurement, repeated at least 3 times with similar results, 1 μl of 1 μM stock into 16 μl PBS; for Relative intensity of dimer peak / Relative intensity of tetramer peak / Molecular weight of dimer peak / Molecular weight of tetramer peak: peak label in figure; for Molecular weight of dimer peak: theoretical dimer 78 kDa (LDH-H), 73.2 kDa (LDH-Htr); for Molecular weight of tetramer peak: theoretical tetramer 155 kDa (LDH-H)
Protocol: Protein landing was recorded using a Refeyn OneMP (Refeyn Ltd) MP system by adding 1 μl of the protein stock solution (1 μM) directly into a 16 μl drop of filtered PBS solution. Movies were acquired for 60 s (6.000 frames) with the AcquireMP (version 2.1.1; Refeyn Ltd) software using standard settings. Data were analyzed using default settings on DiscoverMP (version 2.1.1; Refeyn Ltd) ([44]). Contrast-to-mass calibration was performed prior to the experiments using a mix of proteins with molecular weights of 66, 146, 480, and 1048 kDa.

LDH-H variants [1] = test: Intrinsic tryptophan fluorescence spectra of variants; assay type: physicochemical, human; settings: variant 1.3 μM; λexc 286 nm; n = 6; pH 7.6
Protocol: All spectrophotometric experiments were performed with opaque 96-well plates using a Spectramax m2e spectrophotometer (Molecular Devices) following previously described procedures ([16]).
Full tryptophan fluorescence spectra were recorded using an excitation wavelength of 286 nm and recording the emission spectra from 320 to 400 nm at room temperature. The raw fluorescence of each experiment was subtracted to a corresponding control experiment without the protein. […] For dissociation in subunits, increasing amounts of guanidinium hydrochloride ranging from 0.3 to 2 M were put in contact with the studied proteins (1.3 μM), and fluorescence spectra were recorded afterward.

LDH-H variants [2] = test: nanoDSF thermal denaturation of LDH-H variants; assay type: physicochemical, human; settings: for nanoDSF denaturation pattern / Ratio 350/330 nm / Tm: n = 6; for nanoDSF denaturation pattern: in words; for Ratio 350/330 nm: nanoDSF fluorescence emission ratio; for Ratio 350/330 nm / Tm: pH 7.6; for Tm: Tycho NT.6, protein 25 to 65 μM, 50 mM sodium phosphate, 100 mM NaCl, 20% glycerol, mean ± SEM
Protocol: Solutions of proteins (LDH-H, LDH-Htr or variants), stored in a 50 mM sodium phosphate, 100 mM NaCl, and 20% glycerol, pH 7.6, were evaluated on a Tycho NT.6 device (NanoTemper Technologies) using concentrations ranging from 25 to 65 μM.

dimeric LDH-Htr [3] = test: MST, peptide binding to LDH-Htr; design: species or system human; settings: 1.5 s MST on time, n = 3, labeled LDH-Htr 100 nM, 50 mM sodium phosphate pH 7.6, 100 mM NaCl, 0.01% Tween-20, LP-22 value 'estimated'
Protocol: MST measurements were performed on a NanoTemper Monolith NT.115 instrument (NanoTemper Technologies) using red dye–N-Hydroxysuccinimide fluorescent labeling. LDH-Htr purified to homogeneity was labeled with the Monolith red dye–N-Hydroxysuccinimide second-generation labeling dye (NanoTemper Technologies), according to the supplied protocol. Measurements were performed in 50 mM sodium phosphate, pH 7.6, and 100 mM NaCl containing 0.01% Tween-20 in standard-treated capillaries (NanoTemper Technologies). The final concentration of proteins in the assay was 100 nM. Ligands were titrated in 1:1 dilutions following manufacturer's recommendations. Experiments were performed in triplicates using 40% light-emitting diode power, high MST power, laser on time 20 s and laser off time 3 s. Peptides were evaluated for their thermophoretic pattern, and Kds were extracted from raw data at a 1.5 s MST on time following the manufacturer's instructions.

tetrameric LDH-5 = tetrameric LDH-5 (Homo sapiens, UniProt P00338); test: nanoDSF thermal shift of LDH-5 with peptide; assay type: binding
tetrameric LDH-1 = test: WaterLOGSY NMR with LDH-1; assay type: binding, human; settings: LDH-1 15 μM; LP-22 400 μM; 50 mM sodium phosphate pH 7.6, 100 mM NaCl, 10% heavy water; 277 K
Protocol: (§1) Human LDH-H (full length and truncated)-6-His proteins for 1D NMR were expressed and purified from E. coli, as described previously. All experiments were performed on an Ascend Avance III 600 MHz system equipped with a broadband cryoprobe (Bruker) following a previously described procedure ([16]).
(§2) For WaterLOGSY NMR studies, samples were prepared in 10% heavy water containing 50 mM sodium phosphate buffer, pH 7.6, and 100 mM NaCl. The concentration of LDHs was ranging from 15 to 20 μM of monomer. Ligand binding was detected using a WaterLOGSY ephogsygpno.2 avance-version sequence with a 1 s mixing time, 4096 scans were collected at 277 K to yield a 16 K points free induction decay. Water signal suppression was achieved using an excitation-sculpting scheme, and a 50 ms spinlock was used to suppress protein background signals.

dimeric LDH-Htr [4] = settings: LDH-Htr 15 μM; peptide 500 μM; n = 3; 50 mM sodium phosphate, 100 mM NaCl, pH 7.6; stabilization
Protocol: Solutions of proteins (LDH-1, LDH-5, or LDH-Htr) with peptides were evaluated on a Tycho NT.6 device. Evaluations were performed in a 50 mM sodium phosphate and 100 mM NaCl (pH 7.6) buffer. According to standard manufacturer's procedures, samples were poured into capillaries and heated up to 95 °C in 3 min, while following fluorescence emission at 330 and 350 nm. Melting temperatures were extracted from the derivative of the 350/330 nm fluorescence ratios upon increasing temperature.

dimeric LDH-Htr [5] = test: WaterLOGSY NMR with LDH-Htr; assay type: binding, human; settings: LDH-Htr 15 μM; LP-22 400 μM; 50 mM sodium phosphate pH 7.6, 100 mM NaCl, 10% heavy water; 277 K
Protocol: as §1, §2

Molecule | Oligomeric state in solution (LDH-H oligomeric state) | Molecular weight (main oligomeric state) (LDH-H oligomeric state) [kDa] | Relative intensity of dimer peak (LDH-H oligomeric state) [%] | Relative intensity of tetramer peak (LDH-H oligomeric state) [%] | Molecular weight of dimer peak (LDH-H oligomeric state) [kDa] | Molecular weight of tetramer peak (LDH-H oligomeric state) [kDa] | Tryptophan fluorescence intensity compared with LDH-1 (LDH-H variants [1]) | nanoDSF denaturation pattern (LDH-H variants [2]) | Ratio 350/330 nm (LDH-H variants [2]) | Tm (LDH-H variants [2]; nanoDSF) [°C] | Kd (dimeric LDH-Htr [3]) [µM] | EC50 (tetrameric LDH-5; read-out: EC50 (destabilization of tetrameric LDH, ΔTm vs peptide concentration)) [µM] | WaterLOGSY saturation transfer with tetrameric LDH-1 (tetrameric LDH-1) | Dependence of LDH destabilization on protein concentration (tetrameric LDH-5; nanoDSF, Fig. S2) | ΔTm of dimeric LDH-Htr (dimeric LDH-Htr [4]) [°C] | WaterLOGSY saturation transfer with dimeric LDH-Htr (dimeric LDH-Htr [5]) | Tm difference versus LDH-Htr (LDH-H variants [2]; nanoDSF, higher than LDH-Htr) [°C]
F72A: LDH-H recombinant alanine variant | behaving mainly as dimers in solution | 70 ± 17 | 79 | 19 | 70 | 141 | decays in fluorescence intensity characteristic of the dimeric forms of LDHs | denaturation patterns comparable to dimeric LDH-Htr | 0.94 | 53.9 ± 0.1 |  |  |  |  |  |  | 
E62A: LDH-H recombinant alanine variant | behaving mainly as dimers in solution | 77 ± 18 | 77 |  | 77 | 145 | decays in fluorescence intensity characteristic of the dimeric forms of LDHs | denaturation patterns comparable to dimeric LDH-Htr | 0.95 | 58.9 ± 0.1 |  |  |  |  |  |  | 
Ac-GEMMDLQHGSLFLQTP-NH2 [GP-16] |  |  |  |  |  |  |  |  |  |  | 240 | 262 |  |  |  |  | 
CSCC[C@H](NC(=O)[C@H](CCC(=O)O)NC(=O)CNC(=O)[C@H](CCCCN)NC(=O)[C@H](CC(C)C)NC(=O)[C@H](CCCCN)NC(=O)[C@H](CC(=O)O)NC(=O)[C@H](CCC(=O)O)NC(=O)[C@@H](N)CC(C)C)C(=O)N[C@@H](CCSC)C(=O)N[C@@H](CC(=O)O)C(=O)N[C@@H](CC(C)C)C(=O)N[C@@H](CCC(N)=O)C(=O)N[C@@H](Cc1c[nH]cn1)C(=O)NCC(=O)N[C@@H](CO)C(=O)N[C@@H](CC(C)C)C(=O)N[C@@H](Cc1ccccc1)C(=O)N[C@@H](CC(C)C)C(=O)N[C@@H](CCC(N)=O)C(=O)N[C@H](C(=O)N1CCC[C@H]1C(N)=O)[C@@H](C)O [LP-22] |  |  |  |  |  |  |  |  |  |  | 156 |  | not with the tetrameric LDH-1 | an increasing amount of subunit reverted the effect | 2.8 | undergoes a saturation transfer with dimeric LDH-Htr | 
L71A: LDH-H recombinant alanine variant | behaving as a mixture of tetramers and dimers | 148 ± 12 | 36 | 56 | 72 | 148 |  | a lower initial ratio and a red shift | 0.90 | 67.1 ± 0.1 |  |  |  |  |  |  | 10
